Results reported in US20240124607A1 (Merck Sharp & Dohme, published 2024).
Residue numbers refer to the chain shown, from its start.

What was measured:
human FcγRI [1] = target: T1, human FcγRI (human, UniProt P12314 16-288, limits assumed); assay: SPR, AB0621 on Protein A chip, 25C, pH 7.4; reference not named
Description: (§1) AB0621 was captured onto a Protein A chip (Cytiva, #29127556). Human FcγRs were titrated over captured AB0621 as 3-fold serial dilutions starting from 300 nM for FcγRI, 1000 nM for FcγRIIA R131 and H131, and 3000 nM for FcγRIIB and FcγRIIIB. Association was monitored for 120 sec and dissociation was monitored for 180 sec. Assays were run at 25° C. at pH 7.4. The surface of the chip was regenerated with 10 mM glycine pH 1.5 for 20 sec at 30 μL/min.

human FcγRIIA R131 [2] = target: T2, human FcγRIIA R131 (human, UniProt P12318 34-218, limits assumed); assay: as above
T2 sequence (looked up): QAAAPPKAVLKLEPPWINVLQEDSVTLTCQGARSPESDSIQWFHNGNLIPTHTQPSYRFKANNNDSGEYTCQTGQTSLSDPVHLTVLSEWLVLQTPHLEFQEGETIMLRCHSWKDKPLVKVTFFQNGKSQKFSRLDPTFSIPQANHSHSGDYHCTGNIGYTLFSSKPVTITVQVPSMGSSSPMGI
Description: as §1

human FcγRIIB [3] = target: T3, human FcγRIIB (human, UniProt P31994 43-217, limits assumed); assay: as above
T3 sequence (looked up): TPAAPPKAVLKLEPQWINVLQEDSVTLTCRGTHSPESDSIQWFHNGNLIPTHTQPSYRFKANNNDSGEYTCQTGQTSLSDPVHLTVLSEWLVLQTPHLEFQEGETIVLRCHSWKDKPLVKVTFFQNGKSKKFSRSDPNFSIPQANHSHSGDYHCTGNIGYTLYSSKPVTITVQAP
Description: as §1

human FcγRIIA H131 [4] = target: T4, human FcγRIIA H131 (human, UniProt P12318 34-218, limits assumed); assay: as above
T4 sequence (looked up): T2 sequence (looked up) with R134H
Description: as §1

human FcγRI [5] = target: T1, human FcγRI; assay: SPR, AB0621 on Protein A chip, 25C, pH 7.4
Description: as §1

human FcγRIIA R131 [6] = target: T2, human FcγRIIA R131; assay: SPR, AB0621 on Protein A chip, 25C, pH 7.4
Description: as §1

human FcγRIIB [7] = target: T3, human FcγRIIB; assay: SPR, AB0621 on Protein A chip, 25C, pH 7.4
Description: as §1

human FcγRIIA H131 [8] = target: T4, human FcγRIIA H131; assay: SPR, AB0621 on Protein A chip, 25C, pH 7.4
Description: as §1

human FcγRIIIB = human FcγRIIIB (human, UniProt O75015 17-200, limits assumed); assay: SPR, AB0621 on Protein A chip, 25C, pH 7.4
human FcγRIIIB, sequence (O75015 17-200 limits assumed): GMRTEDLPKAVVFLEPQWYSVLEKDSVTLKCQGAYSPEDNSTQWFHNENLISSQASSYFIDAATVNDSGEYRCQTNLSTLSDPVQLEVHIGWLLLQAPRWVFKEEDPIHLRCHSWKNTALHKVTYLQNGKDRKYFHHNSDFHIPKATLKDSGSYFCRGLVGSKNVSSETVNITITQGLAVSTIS
Description: as §1

T1 sequence (P12314 16-288 limits assumed): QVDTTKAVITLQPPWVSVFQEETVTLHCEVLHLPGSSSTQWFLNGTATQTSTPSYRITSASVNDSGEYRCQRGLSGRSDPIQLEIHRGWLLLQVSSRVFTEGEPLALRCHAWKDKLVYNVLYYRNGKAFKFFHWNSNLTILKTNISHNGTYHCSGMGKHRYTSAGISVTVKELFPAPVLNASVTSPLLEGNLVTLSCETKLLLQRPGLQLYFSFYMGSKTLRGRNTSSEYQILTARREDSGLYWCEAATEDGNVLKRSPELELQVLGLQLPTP

KD/KD ref (human FcγRI [1]): 0.64 fold
KD/KD ref (human FcγRIIA R131 [2]): 0.68 fold
KD/KD ref (human FcγRIIB [3]): 0.94 fold
KD/KD ref (human FcγRIIA H131 [4]): 0.68 fold
Kd (human FcγRI [5]): 14 nM
kon (human FcγRI [5]): 2.6e+06 M⁻¹ s⁻¹
Kd (human FcγRIIA R131 [6]): 330 nM
Kd (human FcγRIIB [7]): 3300 nM
Kd (human FcγRIIA H131 [8]): 600 nM
B1: AB0621 F3' CEACAM5 TriNKET (bispecific antibody, human IgG1, kappa)
chain: DIVMTQSPDSLAVSLGERATINCKSSHSLLYGNFQNNYLAWYQQKPGQPPKLLIYWASTRESGVPDRFSGSGSGTDFTLTISSLQAEDVAVYYCQQYYSYPYTFGCGTKLEIKGGGGSGGGGSGGGGSGGGGSQVQLVQSGAEVKKPGASVKVSCKASGYTFTAYTIHWVRQAPGQCLEWMGYINPSSGYTEYNQKFKDRTTLTADTSISTAYMELSRLRSDDTAVYYCTREGGLLWFDYWGQGTLVTVSSGSDKTHTCPPCPAPELLGGPSVFLFPPKPKDTLMISRTPEVTCVVVDVSHEDPEVKFNWYVDGVEVHNAKTKPREEQYNSTYRVVSVLTVLHQDWLNGKEYKCKVSNKALPAPIEKTISKAKGQPREPRVYTLPPCRDELTKNQVSLTCLVKGFYPSDIAVEWESNGQPENNYKTTPPVLVSDGSFTLYSKLTVDKSRWQQGNVFSCSVMHEALHNHYTQKSLSLSPG
heavy: EVQLVESGGGLVKPGGSLRLSCAASGFTFSSYSMNWVRQAPGKGLEWVSSISSSSSYIYYADSVKGRFTISRDNAKNSLYLQMNSLRAEDTAVYYCARGAPIGAAAGWFDPWGQGTLVTVSSASTKGPSVFPLAPSSKSTSGGTAALGCLVKDYFPEPVTVSWNSGALTSGVHTFPAVLQSSGLYSLSSVVTVPSSSLGTQTYICNVNHKPSNTKVDKKVEPKSCDKTHTCPPCPAPELLGGPSVFLFPPKPKDTLMISRTPEVTCVVVDVSHEDPEVKFNWYVDGVEVHNAKTKPREEQYNSTYRVVSVLTVLHQDWLNGKEYKCKVSNKALPAPIEKTISKAKGQPREPQVCTLPPSRDELTENQVSLTCLVKGFYPSDIAVEWESNGQPENNYKTTPPVLDSDGSFFLYSWLTVDKSRWQQGNVFSCSVMHEALHNHYTQKSLSLSPG
light: DIQMTQSPSSVSASVGDRVTITCRASQGISSWLAWYQQKPGKAPKLLIYAASSLQSGVPSRFSGSGSGTDFTLTISSLQPEDFATYYCQQGVSFPRTFGGGTKVEIKRTVAAPSVFIFPPSDEQLKSGTASVVCLLNNFYPREAKVQWKVDNALQSGNSQESVTEQDSKDSTYSLSSTLTLSKADYEKHKVYACEVTHQGLSSPVTKSFNRGEC
binding result (human FcγRIIIB): no binding (tested: titrated from 3000 nM)
